In paper PMC7519299:

Molecular target: ATP synthase subunit c (bovine), P32876
Details: remark: other sources report otherwise

B1: ATP synthase subunit c, P32876 62-136 (natural protein)
chain: DIDTAAKFIGAGAATVGVAGSGAGIGTVFGSLIIGYARNPSLKQQLFSYAILGFALSEAMGLFCLMVAFLILFAM
modifications: here or on the partner: trimethyllysine at position 43; trimethyllysine at position 43
stoichiometry N: 8
